Results on 72 sequences are retold here after the supplement of paper PMC10567573.

± gives the standard deviation.

The nature of this data set: protein stability index of a GFP-peptide fusion (GPS, HEK-293T) (PSI 1-6); higher = more stable.
The mark [1] stands for this setting: treatment: DMSO, c terminus: a fixed tail appended.
Setting [2] is: treatment: MLN4924 1 uM, 8 h, c terminus: a fixed tail appended.
The mark [3] stands for this setting: treatment: DMSO, c terminus: native.
Setting [4] is: treatment: MLN4924 1 uM, 8 h, c terminus: native.
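Note: 24-mer peptide tiles fused after GFP, lentivirally expressed, FACS-sorted into six equal bins by GFP/DsRed ratio, decoded by Illumina sequencing, PSI is the read-weighted mean bin number.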

Take REVAKELGLPYYETSVFDQFGIKD [RHOBTB1]: the protein stability index runs as follows: under setting [1], 3.18 ± 0.44; under setting [2], 3.27 ± 0.29.

RGRPRKLSKEYWDCLEGKKSKHAP [ELF3]: the protein stability index reads like this: under setting [1], 4.18 ± 0.27; under setting [2], 4.19 ± 0.47.

On to ADVLLQAGADLEHESEGGRTPLMK [ANKRD17], for which the protein stability index reads like this: under setting [1], 5.17 ± 0.34; under setting [2], 5.29 ± 0.15.

For QGQPVVNRPLSLKDQQTFARSVGL [TRADD], the protein stability index reads like this: under setting [1], 3.67 ± 0.35; under setting [2], 3.9 ± 0.12.

For the sequence VENELMISYLMFLQILVYFSFMSW [FAM98B], the protein stability index is, setting by setting: under setting [1], 2.94 ± 0.45; under setting [2], 3.14 ± 0.05.

On to LKSSILIAMAVYTYLRLIVDHHGT [INTS3], for which the protein stability index came to 3.51 ± 0.21 under setting [1] and 3.11 ± 0.27 under setting [2].

LVYHPVQLSTPHAVGVLLLGLVGY [DHCR7] displayed a protein stability index under setting [1] of 3.5 ± 0.77 and a protein stability index under setting [2] of 3.08 ± 0.23.

For the sequence FMEERELLGQDEETAMRKSLGEEE [RSPH3], the protein stability index runs as follows: under setting [1], 5.58 ± 0.12; under setting [2], 5.46 ± 0.4.

TACSLPLCACLLGQKMLRHCGRT [PXN]: the protein stability index was determined as 3.03 ± 0.76 under setting [3] and 2.28 ± 0.4 under setting [4].

As to IANYELVYKDGEHGEEQRITIEPG [PTPRD], the protein stability index is, setting by setting: under setting [1], 4.64 ± 0.34; under setting [2], 4.8 ± 0.28.

On to NHGFEVLYHSVKQGPISTKELADF [FCHO1], for which the protein stability index is, setting by setting: under setting [1], 3.4 ± 0.15; under setting [2], 3.29 ± 0.17.

For the sequence QRSHMGKLKEPQPQDHKPGLGAS, the protein stability index reads like this: under setting [3], 3.13 ± 0.88; under setting [4], 3.63 ± 0.56.

On to KQEQSIISEYEKSLQFDEKCLSIM [RPAIN], for which the protein stability index reads like this: under setting [1], 3.67 ± 0.12; under setting [2], 3.69 ± 0.23.

With DSKHVVLPVDDDSDLNVVASFDRR [RBBP5], the protein stability index was 4.73 ± 0.39 under setting [1] and 5.21 ± 0.23 under setting [2].

For the sequence AKKIKLTAEAEELKPFFMKEVGSH [SOAT1], the protein stability index runs as follows: under setting [1], 3.5 ± 0.34; under setting [2], 3.59 ± 0.38.

Turning to WGHCEIRMRYLNGLDPEPLPLMDL [SPSB1], the protein stability index is, setting by setting: under setting [1], 2.42 ± 0.59; under setting [2], 2.36 ± 0.59.

Turning to VGVAGLISPWNLPLYLLTWKIAPA [ALDH8A1], the protein stability index amounted to 2.92 ± 0.97 under setting [1] and 2.88 ± 0.95 under setting [2].

For EEDEQLRALVRQFGQQDWKFLASH [MYBL2], the protein stability index by setting is: under setting [1], 3.17 ± 0.36; under setting [2], 3.46 ± 0.17.

On to SGSDVLDNVAYARAFNTDHQTQLL [RAD51], for which the protein stability index under setting [1] amounted to 3.66 ± 0.21 and the protein stability index under setting [2] is 3.73 ± 0.12.

Take ARYIDTHNRVSKEDEDIYKLRHDL [PLK2]: the protein stability index runs as follows: under setting [1], 3.75 ± 0.3; under setting [2], 3.8 ± 0.13.

In the case of DQCKINKQIYNLIHLDPRTREGFT [FEM1B], the protein stability index under setting [1] was determined as 2.2 ± 0.35 and the protein stability index under setting [2] is 2.52 ± 0.38.

On to RTCFSPASDGSDFTFLRPLSVQQP [PCDHGC5], for which the protein stability index is, setting by setting: under setting [1], 2.77 ± 0.23; under setting [2], 2.78 ± 0.22.

For the sequence TCAPSVSYFKCVQKEVLPSMRKIV [CCND1], the protein stability index runs as follows: under setting [1], 2.33 ± 0.13; under setting [2], 2.35 ± 0.33.

On to EDITYVLKPTFTKQQIANLDKQAK [USP39], for which the protein stability index under setting [1] worked out at 4.01 ± 0.097 and the protein stability index under setting [2] is 4.17 ± 0.13.

Regarding LALDSGASLLHLAVEAGQEECAKW [RIPK4], the protein stability index is, setting by setting: under setting [1], 3.73 ± 1.2; under setting [2], 3.46 ± 0.4.

On to PGQVAGADFESEDEGEEFDDWEDD [EID1], for which the protein stability index under setting [1] stood at 5.52 ± 0.59 and the protein stability index under setting [2] was determined as 5.59 ± 0.2.

Take GCILFEYYRGFTLFQTHENREHLV [CLK3]: the protein stability index is, setting by setting: under setting [1], 2.97 ± 0.85; under setting [2], 2.21 ± 0.69.

Consider VFFAYAQLGYLLFGTQVENFSTFI [PKD2L1], for which the protein stability index under setting [1] was found to be 3.33 ± 0.054 and the protein stability index under setting [2] was 2.71 ± 0.72.

As for EGHLDDGGYTPDLKMSYSRGLIPV [RBMY1A1], the protein stability index worked out at 3.25 ± 0.14 under setting [1] and 3.15 ± 0.38 under setting [2].

For the sequence TSETSHSPLYADPYTPPATSHRRV [PLEKHN1], the protein stability index reads like this: under setting [1], 4.39 ± 0.12; under setting [2], 4.34 ± 0.08.

Take QPPAITQVHRQGERRRELVRSQTL [SMTNL2]: the protein stability index under setting [1] worked out at 4.19 ± 0.39 and the protein stability index under setting [2] came to 4.57 ± 0.33.

Take LSSVDMRMTSSPSSIPRRDDFFRH [RAD54B]: the protein stability index under setting [1] was 3.21 ± 0.28 and the protein stability index under setting [2] is 3.38 ± 0.34.

Regarding GVIDLFGDAFGSSASEPQPASQAA [SNAP91], the protein stability index under setting [1] turned out to be 3.98 ± 0.14 and the protein stability index under setting [2] was 4.11 ± 0.17.

PEPGRAGYPAPRDEGVLRPRAHA [HAGHL] came in with a protein stability index under setting [3] of 3.29 ± 0.19 and a protein stability index under setting [4] of 3.41 ± 0.28.

As to PAATEAYGSGDTPGGPCDSTLGGD [TBX6], the protein stability index was 5.46 ± 0.25 under setting [1] and 5.3 ± 0.55 under setting [2].

Turning to DAEFLCVFCREGPTHQAHTVGFLD [TRIM15], the protein stability index stood at 2.31 ± 0.27 under setting [1] and 2.34 ± 0.33 under setting [2].

With EFTELLKVMIHPDPERRPSAMALV [WEE1], the protein stability index is, setting by setting: under setting [1], 2.23 ± 0.35; under setting [2], 2.06 ± 0.23.

In turn, KTLYVGNLSRDVTEALILQLFSQI [TIA1] had a protein stability index under setting [1] of 2.6 ± 0.51 and a protein stability index under setting [2] of 2.73 ± 0.42.

For the sequence KQLRQVTKEEGLALAREFSCPFFE [RIT1], the protein stability index by setting is: under setting [1], 3.27 ± 0.29; under setting [2], 3.49 ± 0.33.

For SQVCRVAYEIMQTLHPDASANFHS [FUT8], the protein stability index is, setting by setting: under setting [1], 2.34 ± 0.36; under setting [2], 2.27 ± 0.42.

For LSAANVCLDPIIYFFLCQPFREIL [P2RY14], the protein stability index under setting [1] was determined as 3.28 ± 0.74 and the protein stability index under setting [2] stood at 2.58 ± 0.77.

In the case of REKQLSHSLRAVSTDPPHHDHHDE [BEX1], the protein stability index runs as follows: under setting [1], 5.37 ± 0.4; under setting [2], 5.382 ± 0.051.

As for PRALIFSTDDFFFREDGAYEFNPD [N4BP2L1], the protein stability index is, setting by setting: under setting [1], 2.95 ± 0.41; under setting [2], 3.66 ± 0.48.

For the sequence DSQVSEEVKTRHSEKSQREDEEEE [CHGB], the protein stability index by setting is: under setting [1], 5.75 ± 0.099; under setting [2], 5.49 ± 0.21.

LFVLFMFFGMAFNFIVNDSRKKPI [SOAT1]: the protein stability index was found to be 3.19 ± 0.45 under setting [1] and 2.99 ± 0.24 under setting [2].

On to RKVLQAVHRGDGANPFQAYLDVDL [RTN2], for which the protein stability index by setting is: under setting [1], 3.21 ± 0.26; under setting [2], 3.26 ± 0.19.

Consider VQVSPEFKDSAGKSPTGLKLKNDT [ZNF75A], for which the protein stability index was 4.96 ± 0.23 under setting [1] and 4.91 ± 0.15 under setting [2].

For the sequence LLPRQPLPLGIKVYEDETKVVHAV [PALM], the protein stability index amounted to 3.47 ± 0.28 under setting [1] and 3.48 ± 0.12 under setting [2].

As for DTDAEGDDFELLDQSELSQLDPAS [RETREG3], the protein stability index under setting [1] is 5.61 ± 0.065 and the protein stability index under setting [2] is 5.57 ± 0.16.

As to EKVSQELKEPLHKALQMLLSQPVT [BCL2L13], the protein stability index runs as follows: under setting [1], 2.88 ± 0.26; under setting [2], 3 ± 0.45.

Consider GSNPPYLPFRDASFGNCTYNLTIL [CDC14A], for which the protein stability index is, setting by setting: under setting [1], 2.6 ± 0.69; under setting [2], 2.8 ± 0.73.

The sequence SVMVMREILDYIFSGQIRLNEDTI [GAN] came in with a protein stability index under setting [1] of 2.53 ± 0.51 and a protein stability index under setting [2] of 2.32 ± 0.64.

LRAGSSEFDSEHNLTSNEGHSLKN [RASAL3]: the protein stability index was 4.67 ± 0.42 under setting [1] and 4.87 ± 0.64 under setting [2].

Regarding DTMLEEVENKEKDSNMPHFQTLQA [CEP70], the protein stability index under setting [1] is 4.94 ± 0.22 and the protein stability index under setting [2] stood at 4.93 ± 0.15.

Take LFSSHPPLGGGVGGQDGLGAPKDQ [KLHL14]: the protein stability index was 4.89 ± 0.55 under setting [1] and 4.81 ± 0.049 under setting [2].

Take VDHHGTAQLQALRQKEVDFCISLL [INTS3]: the protein stability index came out at 2.23 ± 0.2 under setting [1] and 2.35 ± 0.45 under setting [2].

EMIQTSKTEITDLRRTMQELEIEL [KRT15]: the protein stability index is 3.65 ± 0.25 under setting [1] and 3.65 ± 0.13 under setting [2].

With MDEISEKLKKGICEALEDSDGRQD [MATN2], the protein stability index under setting [1] worked out at 5.42 ± 0.25 and the protein stability index under setting [2] amounted to 5.4 ± 0.17.

In the case of DAVFMKDGFFYFFHGTRQYKFDPK [MMP1], the protein stability index came out at 2.25 ± 0.33 under setting [1] and 2.1 ± 0.13 under setting [2].

In the case of RRARINESLQELRLLLAGAEVQAK [HES6], the protein stability index runs as follows: under setting [1], 2.62 ± 0.3; under setting [2], 2.84 ± 0.77.

For the sequence YESTLFEDQVPALEAPEDIGSTSE [MIA2], the protein stability index stood at 5.55 ± 0.23 under setting [1] and 5.51 ± 0.33 under setting [2].

In turn, AACFDGRLDIVKYLVENNANISIA [FEM1B] returned a protein stability index under setting [1] of 2.38 ± 0.38 and a protein stability index under setting [2] of 2.21 ± 0.38.

ANRWSFDGIDRWIKEIDEHAPGVP [RAB40B]: the protein stability index came to 3.92 ± 0.076 under setting [1] and 3.92 ± 0.12 under setting [2].

Take CSFSIERILGLDQKKDCVPLMKPH [HESX1]: the protein stability index reads like this: under setting [1], 2.33 ± 0.19; under setting [2], 2.43 ± 0.23.

In the case of LYPSAPILGGSGPVRKLYDDCSST [ESRRG], the protein stability index was 3.82 ± 0.3 under setting [1] and 3.72 ± 0.24 under setting [2].

In the case of QVENWSAFAPDFKELDENVEYEER [RBBP5], the protein stability index runs as follows: under setting [1], 5.05 ± 0.36; under setting [2], 5.15 ± 0.48.

For NGVSGPSQDLLPPPNPYPLPQEHS [TBX5], the protein stability index reads like this: under setting [1], 4.64 ± 0.33; under setting [2], 4.54 ± 0.56.

In the case of VKSVSPQGNSVDRMAAPRAEALFD [NCF4], the protein stability index under setting [1] came to 4.35 ± 0.14 and the protein stability index under setting [2] stood at 4.71 ± 0.14.

Consider PNQAMVVAAAGDACPPQHVPPKDS [TBC1D10A], for which the protein stability index is, setting by setting: under setting [1], 5.5 ± 0.14; under setting [2], 5.37 ± 0.12.

Regarding LNVRGGKPDDITVLLSIVAEYTD [PPTC7], the protein stability index worked out at 3.45 ± 0.95 under setting [3] and 2.5 ± 0.44 under setting [4].

Turning to EEVVSFVKKNVLVTGGFFGGFLLG [FUNDC2], the protein stability index runs as follows: under setting [1], 2.36 ± 0.68; under setting [2], 2.61 ± 0.73.

As to KKRKRQEKIDKLEQDMERRKADFK [ZC3H15], the protein stability index turned out to be 4.7 ± 0.4 under setting [1] and 4.77 ± 0.1 under setting [2].
